Common to all, as to test: stopped-flow tryptophan fluorescence, avidin 0.5 µM, biotin-protein 5.0 µM
In series [1] the target is Avidin-pCBMA170, P02701.
Series [2] concerns the target Avidin-pCBMA121, P02701.
Series [3] addresses Avidin-pCBMA56, P02701.
In series [4] the target is Avidin-pCBMA58, P02701.
Series [5] concerns the target Avidin-pCBMA109, P02701.
In series [6] the target is Avidin-pCBMA182, P02701.
Series [7] concerns the target Avidin-pCBMA152, P02701.
For series [8], the target named is Native avidin, P02701.
Native avidin, P02701, sequence (P02701 25-152): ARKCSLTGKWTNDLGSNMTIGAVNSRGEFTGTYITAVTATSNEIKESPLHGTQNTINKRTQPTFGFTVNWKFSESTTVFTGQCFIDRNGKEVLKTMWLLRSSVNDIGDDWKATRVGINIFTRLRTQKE
Series [9] concerns the target Avidin-pCBMA232, P02701.

Avidin-pCBMA152, P02701, sequence (P02701 25-152): as above
Avidin-pCBMA109, P02701, sequence (P02701 25-152): as above
Avidin-pCBMA58, P02701, sequence (P02701 25-152): as above
Avidin-pCBMA121, P02701, sequence (P02701 25-152): as above
Avidin-pCBMA56, P02701, sequence (P02701 25-152): as above
Avidin-pCBMA232, P02701, sequence (P02701 25-152): as above
Avidin-pCBMA182, P02701, sequence (P02701 25-152): as above
Avidin-pCBMA170, P02701, sequence (P02701 25-152): as above

B1: Biotin-HRP (protein)
chain: QLTPTFYDNSCPNVSNIVRDTIVNELRSDPRIAASILRLHFHDCFVNGCDASILLDNTTSFRTEKDAFGNANSARGFPVIDRMKAAVESACPRTVSCADLLTIAAQQSVTLAGGPSWRVPLGRRDSLQAFLDLANANLPAPFFTLPQLKDSFRNVGLNRSSDLVALSGGHTFGKNQCRFIMDRLYNFSNTGLPDPTLNTTYLQTLRGLCPLNGNLSALVDFDLRTPTIFDNKYYVNLEEQKGLIQSDQELFSSPNATDTIPLVRSFANSTQTFFNAFVEAMDRMGNITPLTGTQGQIRLNCRVVNSNS
Take B1: the k (kobs, observed first-order rate constant) in series [1] is 0.209 s⁻¹; in series [2], 0.218 s⁻¹; in series [3], 0.261 s⁻¹; in [4], 0.028 s⁻¹; in series [5] it was 0.026 s⁻¹; in series [6], 0.025 s⁻¹. The k (kobs, observed first-order rate constant) in series [7] was determined as 0.025 s⁻¹; in series [8], 5.03 s⁻¹; in [9], 0.196 s⁻¹.

The values are drawn from patent publication US20210388337.
